Target: MazF (E. coli) (UniProt P0AE70)
Chain of UniProt P0AE70 (P0AE70 whole entry): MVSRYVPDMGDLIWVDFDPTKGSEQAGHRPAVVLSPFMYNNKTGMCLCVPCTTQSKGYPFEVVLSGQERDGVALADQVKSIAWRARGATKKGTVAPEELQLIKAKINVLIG

Work on “His-MazE (from UniProt P0AE72 1-82) (natural protein)” yielded a recovery of Luc production (end-point) in a cell-free reaction made of MazF crude extract, against the concentration of pure MazE added of 0.6 µM and a recovery of deGFP production (end-point) in a cell-free reaction made of MazF crude extract, against the concentration of pure MazE added of 0.4 µM.
